# Square brackets hold non-standard residues; d marks the D form. Ends that are not written are not given here. pT = C[C@@H](OP(=O)(O)O)[C@H](N)C(=O)O; pS = N[C@@H](COP(=O)(O)O)C(=O)O
# B1: C7pp2, phosphopeptide derived from the carboxyl terminus of CXCR7 (residues 346-359) (peptide)
# peptide: ASRV[pS]E[pT]EY[pS]ALEQ
# Columns and labels:
# β-arrestin2 R394A = β-arrestin2 R394A (UniProt P29067 1-410, R394A); assay: ITC
# β-arrestin2 R166A = β-arrestin2 R166A (UniProt P29067 1-410, R166A); assay: ITC
# Chain of β-arrestin2 R166A (P29067 whole entry R166A): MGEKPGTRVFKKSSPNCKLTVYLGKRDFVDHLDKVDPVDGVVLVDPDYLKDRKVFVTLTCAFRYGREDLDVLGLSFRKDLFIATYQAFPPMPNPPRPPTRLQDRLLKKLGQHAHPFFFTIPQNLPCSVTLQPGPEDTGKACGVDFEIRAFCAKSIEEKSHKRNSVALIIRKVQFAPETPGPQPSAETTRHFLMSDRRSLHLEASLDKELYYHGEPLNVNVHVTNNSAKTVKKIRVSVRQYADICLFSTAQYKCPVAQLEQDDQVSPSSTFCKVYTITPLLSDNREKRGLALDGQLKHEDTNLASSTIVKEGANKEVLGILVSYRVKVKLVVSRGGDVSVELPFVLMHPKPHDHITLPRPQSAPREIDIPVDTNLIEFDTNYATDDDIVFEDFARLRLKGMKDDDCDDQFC
# Chain of β-arrestin2 R394A (P29067 whole entry R394A): as the sequence (P29067 whole entry R166A) above, with A166R, R394A counted along it
binder,measurement,setting,value
B1,Kd,β-arrestin2 R394A,1.1 µM
same,Kd,β-arrestin2 R166A,16.4 µM

# Reference: doi:10.1101/2025.01.05.631353 (bioRxiv, 2025)
